Results published in the MegaScale stability set (Tsuboyama et al. 2023).

B1: EEHEE_rd4_0469 (parent)
chain: ITIHVNGVTYHFDNPEEAEKFAQKMAKTYQLKMEIHNGEFHME

Variants of: B1
Experiment: folding stability dG (cDNA display proteolysis); higher = more stable
Conditions: PBS, room temperature

Row | Variant | folding stability dG [kcal/mol]
1 | ITIHVNGVTYHFDNPEEAEKFAQKMNKTYQLKMEIHNGEFHME | 0.766
2 | ITIHVNGVTYHFDNPEEAEKFAQKMLKTYQLKMEIHNGEFHME | 1.25
3 | ITIHVNGVTYHFDNPEEAEKFAQKMDKTYQLKMEIHNGEFHME | 0.963
4 | ITIHVNGVTYHFDNPEEAEKFAQKMIKTYQLKMEIHNGEFHME | 1.31
5 | ITIHVNGVTYHFDNPEEAEKFAQKMMKTYQLKMEIHNGEFHME | 1.46
6 | ITIHVNGVTYHFDNPEEAEKFAQKMYKTYQLKMEIHNGEFHME | 1.45
7 | ITIHVNGVTYHFDNPEEAEKFAQKMVKTYQLKMEIHNGEFHME | 0.794
8 | ITIHVNGVTYHFDNPEEAEKFAQKMTKTYQLKMEIHNGEFHME | 0.708
9 | ITIHVNGVTYHFDNPEEAEKFAQKMFKTYQLKMEIHNGEFHME | 1.19
10 | ITIHVNGVTYHFDNPEEAEKFAQKMEKTYQLKMEIHNGEFHME | 1.12
11 | ITIHVNGVTYHFDNPEEAEKFAQKMRKTYQLKMEIHNGEFHME | 1.1
12 | ITIHVNGVTYHFDNPEEAEKFAQKMWKTYQLKMEIHNGEFHME | 1.63
13 | ITIHVNGVTYHFDNPEEAEKFAQKMSKTYQLKMEIHNGEFHME | 1.04
14 | ITIHVNGVTYHFDNPEEAEKFAQKMKKTYQLKMEIHNGEFHME | 1.01
15 | ITIHVNGVTYHFDNPEEAEKFAQKMGKTYQLKMEIHNGEFHME | 0.919
16 | ITIHVNGVTYHFDNPEEAEKFAQKMHKTYQLKMEIHNGEFHME | 0.851
17 | ITIHVNGVTYHFDNPEEAEKFAQKMQKTYQLKMEIHNGEFHME | 0.97
18 | ITIHVNGVTYHFDNPEEAEKFAQKMPKTYQLKMEIHNGEFHME | 0.076
19 | ITIHVNGVTYHFDNPEEAEKFAQKMAKIYQLKMEIHNGEFHME | 1.6
20 | ITIHVNGVTYHFDNPEEAEKFAQKMAKMYQLKMEIHNGEFHME | 1.65
21 | ITIHVNGVTYHFDNPEEAEKFAQKMAKSYQLKMEIHNGEFHME | 0.87
22 | ITIHVNGVTYHFDNPEEAEKFAQKMAKYYQLKMEIHNGEFHME | 1.91
23 | ITIHVNGVTYHFDNPEEAEKFAQKMAKPYQLKMEIHNGEFHME | 0.094
24 | ITIHVNGVTYHFDNPEEAEKFAQKMAKFYQLKMEIHNGEFHME | 1.67

Row | Variant | folding stability dG [kcal/mol]
25 | ITIHVNGVTYHFDNPEEAEKFAQKMAKGYQLKMEIHNGEFHME | 0.636
26 | ITIHVNGVTYHFDNPEEAEKFAQKMAKVYQLKMEIHNGEFHME | 1.22
27 | ITIHVNGVTYHFDNPEEAEKFAQKMAKRYQLKMEIHNGEFHME | 1.65
28 | ITIHVNGVTYHFDNPEEAEKFAQKMAKHYQLKMEIHNGEFHME | 1.45
29 | ITIHVNGVTYHFDNPEEAEKFAQKMAKEYQLKMEIHNGEFHME | 2
30 | ITIHVNGVTYHFDNPEEAEKFAQKMAKDYQLKMEIHNGEFHME | 1.87
31 | ITIHVNGVTYHFDNPEEAEKFAQKMAKQYQLKMEIHNGEFHME | 1.51
32 | ITIHVNGVTYHFDNPEEAEKFAQKMAKLYQLKMEIHNGEFHME | 1.97
33 | ITIHVNGVTYHFDNPEEAEKFAQKMAKAYQLKMEIHNGEFHME | 1.26
34 | ITIHVNGVTYHFDNPEEAEKFAQKMAKWYQLKMEIHNGEFHME | 1.95
35 | ITIHVNGVTYHFDNPEEAEKFAQKMAKKYQLKMEIHNGEFHME | 1.69
36 | ITIHVNGVTYHFDNPEEAEKFAQKMAKNYQLKMEIHNGEFHME | 1.24
37 | ITIHVNGVTYHFDNPEEAEKFAQKMAFTYQLKMEIHNGEFHME | 1.25
38 | ITIHVNGVTYHFDNPEEAEKFAQKMAQTYQLKMEIHNGEFHME | 1.24
39 | ITIHVNGVTYHFDNPEEAEKFAQKMAGTYQLKMEIHNGEFHME | 0.713
40 | ITIHVNGVTYHFDNPEEAEKFAQKMAHTYQLKMEIHNGEFHME | 0.969
41 | ITIHVNGVTYHFDNPEEAEKFAQKMAPTYQLKMEIHNGEFHME | 1.22
42 | ITIHVNGVTYHFDNPEEAEKFAQKMAITYQLKMEIHNGEFHME | 1.34
43 | ITIHVNGVTYHFDNPEEAEKFAQKMANTYQLKMEIHNGEFHME | 0.922
44 | ITIHVNGVTYHFDNPEEAEKFAQKMAWTYQLKMEIHNGEFHME | 1.38
45 | ITIHVNGVTYHFDNPEEAEKFAQKMAMTYQLKMEIHNGEFHME | 1.22
46 | ITIHVNGVTYHFDNPEEAEKFAQKMARTYQLKMEIHNGEFHME | 1.09
47 | ITIHVNGVTYHFDNPEEAEKFAQKMAYTYQLKMEIHNGEFHME | 1.27
48 | ITIHVNGVTYHFDNPEEAEKFAQKMAVTYQLKMEIHNGEFHME | 1.22

Row | Variant | folding stability dG [kcal/mol]
49 | ITIHVNGVTYHFDNPEEAEKFAQKMASTYQLKMEIHNGEFHME | 1
50 | ITIHVNGVTYHFDNPEEAEKFAQKMAATYQLKMEIHNGEFHME | 1.32
51 | ITIHVNGVTYHFDNPEEAEKFAQKMATTYQLKMEIHNGEFHME | 1.02
52 | ITIHVNGVTYHFDNPEEAEKFAQKMADTYQLKMEIHNGEFHME | 1.5
53 | ITIHVNGVTYHFDNPEEAEKFAQKMALTYQLKMEIHNGEFHME | 1.34
54 | ITIHVNGVTYHFDNPEEAEKFAQKMAETYQLKMEIHNGEFHME | 1.51
55 | ITIHVNGVTYHFDNPEEAEKFAQKNAKTYQLKMEIHNGEFHME | 0.081
56 | ITIHVNGVTYHFDNPEEAEKFAQKSAKTYQLKMEIHNGEFHME | 0.059
57 | ITIHVNGVTYHFDNPEEAEKFAQKEAKTYQLKMEIHNGEFHME | 0.109
58 | ITIHVNGVTYHFDNPEEAEKFAQKFAKTYQLKMEIHNGEFHME | 0.692
59 | ITIHVNGVTYHFDNPEEAEKFAQKKAKTYQLKMEIHNGEFHME | -0.083
60 | ITIHVNGVTYHFDNPEEAEKFAQKHAKTYQLKMEIHNGEFHME | 0.288
61 | ITIHVNGVTYHFDNPEEAEKFAQKYAKTYQLKMEIHNGEFHME | 0.664
62 | ITIHVNGVTYHFDNPEEAEKFAQKIAKTYQLKMEIHNGEFHME | 0.968
63 | ITIHVNGVTYHFDNPEEAEKFAQKGAKTYQLKMEIHNGEFHME | -0.244
64 | ITIHVNGVTYHFDNPEEAEKFAQKRAKTYQLKMEIHNGEFHME | 0.041
65 | ITIHVNGVTYHFDNPEEAEKFAQKVAKTYQLKMEIHNGEFHME | 0.732
66 | ITIHVNGVTYHFDNPEEAEKFAQKPAKTYQLKMEIHNGEFHME | -0.979
67 | ITIHVNGVTYHFDNPEEAEKFAQKDAKTYQLKMEIHNGEFHME | -0.066
68 | ITIHVNGVTYHFDNPEEAEKFAQKAAKTYQLKMEIHNGEFHME | 0.464
69 | ITIHVNGVTYHFDNPEEAEKFAQKLAKTYQLKMEIHNGEFHME | 1.12
70 | ITIHVNGVTYHFDNPEEAEKFAQKTAKTYQLKMEIHNGEFHME | 0.301
71 | ITIHVNGVTYHFDNPEEAEKFAQKCAKTYQLKMEIHNGEFHME | 1.66
72 | ITIHVNGVTYHFDNPEEAEKFAQKQAKTYQLKMEIHNGEFHME | 0.418

Row | Variant | folding stability dG [kcal/mol]
73 | ITIHVNGVTYHFDNPEEAEKFAQKWAKTYQLKMEIHNGEFHME | 1.07
74 | ITIHVNGVTYHFDNPEEAEKFAQKMAKTYELKMEIHNGEFHME | 1.21
75 | ITIHVNGVTYHFDNPEEAEKFAQKMAKTYHLKMEIHNGEFHME | 1.43
76 | ITIHVNGVTYHFDNPEEAEKFAQKMAKTYMLKMEIHNGEFHME | 0.881
77 | ITIHVNGVTYHFDNPEEAEKFAQKMAKTYPLKMEIHNGEFHME | 1.53
78 | ITIHVNGVTYHFDNPEEAEKFAQKMAKTYDLKMEIHNGEFHME | 1.08
79 | ITIHVNGVTYHFDNPEEAEKFAQKMAKTYNLKMEIHNGEFHME | 1.17
80 | ITIHVNGVTYHFDNPEEAEKFAQKMAKTYALKMEIHNGEFHME | 1.02
81 | ITIHVNGVTYHFDNPEEAEKFAQKMAKTYGLKMEIHNGEFHME | 1.5
82 | ITIHVNGVTYHFDNPEEAEKFAQKMAKTYKLKMEIHNGEFHME | 1.12
83 | ITIHVNGVTYHFDNPEEAEKFAQKMAKTYFLKMEIHNGEFHME | 1.14
84 | ITIHVNGVTYHFDNPEEAEKFAQKMAKTYRLKMEIHNGEFHME | 0.814
85 | ITIHVNGVTYHFDNPEEAEKFAQKMAKTYSLKMEIHNGEFHME | 0.808
86 | ITIHVNGVTYHFDNPEEAEKFAQKMAKTYILKMEIHNGEFHME | 0.708
87 | ITIHVNGVTYHFDNPEEAEKFAQKMAKTYTLKMEIHNGEFHME | 0.699
88 | ITIHVNGVTYHFDNPEEAEKFAQKMAKTYLLKMEIHNGEFHME | 0.853
89 | ITIHVNGVTYHFDNPEEAEKFAQLMAKTYQLKMEIHNGEFHME | 1.48
90 | ITIHVNGVTYHFDNPEEAEKFAQQMAKTYQLKMEIHNGEFHME | 1.2
91 | ITIHVNGVTYHFDNPEEAEKFAQWMAKTYQLKMEIHNGEFHME | 2.29
92 | ITIHVNGVTYHFDNPEEAEKFAQVMAKTYQLKMEIHNGEFHME | 1.29
93 | ITIHVNGVTYHFDNPEEAEKFAQTMAKTYQLKMEIHNGEFHME | 1.1
94 | ITIHVNGVTYHFDNPEEAEKFAQMMAKTYQLKMEIHNGEFHME | 1.41
95 | ITIHVNGVTYHFDNPEEAEKFAQRMAKTYQLKMEIHNGEFHME | 1.31
96 | ITIHVNGVTYHFDNPEEAEKFAQSMAKTYQLKMEIHNGEFHME | 0.939

Row | Variant | folding stability dG [kcal/mol]
97 | ITIHVNGVTYHFDNPEEAEKFAQYMAKTYQLKMEIHNGEFHME | 2.27
98 | ITIHVNGVTYHFDNPEEAEKFAQNMAKTYQLKMEIHNGEFHME | 0.976
99 | ITIHVNGVTYHFDNPEEAEKFAQPMAKTYQLKMEIHNGEFHME | -0.407
100 | ITIHVNGVTYHFDNPEEAEKFAQKMAKTMQLKMEIHNGEFHME | 0.899
101 | ITIHVNGVTYHFDNPEEAEKFAQKMAKTGQLKMEIHNGEFHME | 1.59
102 | ITIHVNGVTYHFDNPEEAEKFAQKMAKTPQLKMEIHNGEFHME | 1.7
103 | ITIHVNGVTYHFDNPEEAEKFAQKMAKTWQLKMEIHNGEFHME | 0.793
104 | ITIHVNGVTYHFDNPEEAEKFAQKMAKTCQLKMEIHNGEFHME | 2.3
105 | ITIHVNGVTYHFDNPEEAEKFAQKMAKTKQLKMEIHNGEFHME | 0.768
106 | ITIHVNGVTYHFDNPEEAEKFAQKMAKTNQLKMEIHNGEFHME | 1.29
107 | ITIHVNGVTYHFDNPEEAEKFAQKMAKTSQLKMEIHNGEFHME | 1.05
108 | ITIHVNGVTYHFDNPEEAEKFAQKMAKTVQLKMEIHNGEFHME | 0.848
109 | ITIHVNGVTYHFDNPEEAEKFAQKMAKTHQLKMEIHNGEFHME | 1.45
110 | ITIHVNGVTYHFDNPEEAEKFAQKMAKTEQLKMEIHNGEFHME | 1.6
111 | ITIHVNGVTYHFDNPEEAEKFAQKMAKTLQLKMEIHNGEFHME | 1.17
112 | ITIHVNGVTYHFDNPEEAEKFAQKMAKTQQLKMEIHNGEFHME | 1.05
113 | ITIHVNGVTYHFDNPEEAEKFAQKMAKTDQLKMEIHNGEFHME | 1.59
114 | ITIHVNGVTYHFDNPEEAEKFAQKMAKTTQLKMEIHNGEFHME | 1.05
115 | ITIHVNGVTYHFDNPEEAEKFAQKMAKTIQLKMEIHNGEFHME | 0.788
116 | ITIHVNGVTYHFDNPEEAEKFAQKMAKTFQLKMEIHNGEFHME | 0.965
117 | ITIHVNGVTYHFDNPEEAEKFAQKMAKTAQLKMEIHNGEFHME | 1.07
118 | ITIHVNGVTYHFDNPEEAEKFAQKMAKTRQLKMEIHNGEFHME | 0.657
